In general, Kd refers to the equilibrium constant for the complex coming apart. A lower Kd goes with a tighter complex. What is called koff is a measure of how fast the partners let go of each other. As a reminder, the kon is the second-order rate constant of association.

Common to all, as to assay: SPR (BIAcore 3000), antibody on chip, sIL-6R analyte, 25 C
On the technique in general: In SPR one partner is held on a chip, and binding of the other changes the refractive index at the surface.

Test [1] has as its target T1, sIL-6R (soluble IL-6 receptor; SBH Sciences) (human, UniProt P08887 20-365).
T1 construct: also called human IL-6R
T1 sequence: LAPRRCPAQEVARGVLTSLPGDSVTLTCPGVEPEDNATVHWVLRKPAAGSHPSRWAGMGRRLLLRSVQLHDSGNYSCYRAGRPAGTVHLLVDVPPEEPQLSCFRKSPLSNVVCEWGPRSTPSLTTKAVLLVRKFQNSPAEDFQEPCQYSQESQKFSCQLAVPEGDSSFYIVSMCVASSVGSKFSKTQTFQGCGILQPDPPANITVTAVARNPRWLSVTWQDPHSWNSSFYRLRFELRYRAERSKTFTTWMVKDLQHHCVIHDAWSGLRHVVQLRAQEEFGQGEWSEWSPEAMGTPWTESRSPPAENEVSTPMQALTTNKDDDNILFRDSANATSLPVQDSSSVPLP
As for the experimental part: (§1) All SPR measurements were performed on a BIAcore 3000 instrument (GE Biosciences, Piscataway, N.J.). BIAcore Software-BIAcore 3000 Control Software V3.2 was used for the operation and control of the BIAcore 3000 instrument. BiaEvaluation Software V4.1 was used for the analysis of SPR data from the BIAcore 3000 instrument and data was plotted using Graph Pad Prism Software Version 5. […] The indicated antibodies were used as the ligand for the construction of the reference channel of the chip. […] Each sample was injected for 3 min at a flow rate of 30 μL/min to allow for binding to chip-bound antibody. Next, binding buffer without analyte was sent over the chip at the same flow rate to allow for dissociation of bound analyte. After 500s, remaining bound analyte was removed by injecting regeneration solution (1M Formic acid). Data was analyzed by using the Kinetics Wizard and the manual fitting programs that are both included with the BiaEvaluation Software V4.1.

Test [2] concerns the target T1, sIL-6R (soluble IL-6 receptor; SBH …). As for the experimental part:
as §1
The source holds these as a separate data set.

Test [3] has the same target. As for the experimental part:
as §1
This is another data set of the same source.

Numbering of substitutions follows the chain as printed. Like-named read-outs stand apart in the source and are kept apart here.

B1: 3# (antibody, human IgG1, kappa, V domains shown)
VH: QVQLQESGPGLVRPSQTLSLTCTVSGYSITSDHAWSWVRQPPGRGLEWIGYISYSGITTYNPSLKSRVTMLRDTSKNQFSLRLSSVTAADTAVYYCARSLARATAMDYWGQGSLVTVSS
VL: DIQMTQSPSSLSASVGDRVTITCRASQDISSYLNWYQQKPGKAPKLLIYYTSRLHSGVPSRFSGSGSGTDFTFTISSLQPEDIATYYCQQGNTLPYTFGQGTKVEIKR
notes: also called Sample # 3
Regarding B1, in test [1], the Kd stood at 0.273 nM, the “Relative Affinity” value is 4.9 fold vs 25 (Tocilizumab), the koff came out at 5.8e-05 s⁻¹ and the kon stood at 213000 M⁻¹ s⁻¹. In addition, in test [2], binding was characterised by a dissociation constant (Kd) of 0.435 nM, the “Relative Affinity” value is 3.9 fold vs 25 (Tocilizumab), the koff was 8.87e-05 s⁻¹ and the kon was determined as 204000 M⁻¹ s⁻¹.

B2: 26# (antibody, human IgG1, kappa, V domains shown)
VH: B1 VH with I57M, A103T
VL: B1 VL
notes: also called Sample # 26
As for B2, in test [1], the affinity, expressed as Kd, was 0.42 nM; the “Relative Affinity” value was 3.2 fold vs 25 (Tocilizumab); the koff is 0.000102 s⁻¹; the kon was determined as 243000 M⁻¹ s⁻¹.

B3: 5# (antibody, human IgG1, kappa, V domains shown)
VH: B1 VH with Y51F, A103T
VL: B1 VL
notes: also called Sample # 5
B3: in test [1], binding was characterised by a dissociation constant (Kd) of 0.882 nM, the “Relative Affinity” value is 1.5 fold vs 25 (Tocilizumab), the koff worked out at 0.000234 s⁻¹ and the kon worked out at 266000 M⁻¹ s⁻¹.

B4: 13# (antibody, human IgG1, kappa, V domains shown)
VH: B1 VH with Y51F, S99C, A103T
VL: B1 VL
notes: also called Sample # 13
On to B4, for which, in test [1], the affinity, expressed as Kd, was 0.373 nM; the “Relative Affinity” value was 3.6 fold vs 25 (Tocilizumab); the koff was determined as 0.0001 s⁻¹; the kon turned out to be 269000 M⁻¹ s⁻¹.

B5: 11# (antibody, human IgG1, kappa, V domains shown)
VH: B1 VH with Y51F
VL: B1 VL
notes: also called Sample # 11
B5: in test [1], the affinity, expressed as Kd, was 0.0863 nM; the “Relative Affinity” value was 15.5 fold vs 25 (Tocilizumab); the koff was 2.38e-05 s⁻¹; the association rate constant (kon) turned out to be 275000 M⁻¹ s⁻¹. For the same molecule, in test [2], the Kd worked out at 0.112 nM, the “Relative Affinity” value was 15.3 fold vs 25 (Tocilizumab), the koff was determined as 3.08e-05 s⁻¹ and the kon is 276000 M⁻¹ s⁻¹.

B6: 240# (antibody, human IgG1, kappa, V domains shown)
VH: B1 VH with I57M, T58I
VL: B1 VL with Q89G, T93R
notes: also called Sample # 240
Consider B6, for which, in test [3], the dissociation constant (Kd) was determined as 0.15 nM, the “Relative Affinity” value is 21.1 fold vs 25 (Tocilizumab), the koff stood at 2.3e-05 s⁻¹ and the on-rate (kon) was 154000 M⁻¹ s⁻¹.

B7: 241# (antibody, human IgG1, kappa, V domains shown)
VH: B1 VH with I57M, S99C, A103M, M106I, Y108F
VL: B1 VL with Q89G, T93R
For the molecule B7, in test [3], the Kd came to 0.202 nM, the “Relative Affinity” value is 15.6 fold vs 25 (Tocilizumab), the koff is 3.61e-05 s⁻¹ and the kon amounted to 179000 M⁻¹ s⁻¹.

B8: 9# (antibody, human IgG1, kappa, V domains shown)
VH: B1 VH with T58I, P62A, S99C, A103T
VL: B1 VL
notes: also called Sample # 9
For the molecule B8, in test [1], the Kd stood at 0.249 nM, the “Relative Affinity” value was 5.4 fold vs 25 (Tocilizumab), the koff worked out at 5.94e-05 s⁻¹ and the kon is 239000 M⁻¹ s⁻¹. In test [2], binding was characterised by a dissociation constant (Kd) of 0.32 nM, the “Relative Affinity” value is 5.3 fold vs 25 (Tocilizumab), the koff was found to be 6.28e-05 s⁻¹ and the kon was 196000 M⁻¹ s⁻¹.

B9: 245# (antibody, human IgG1, kappa, V domains shown)
VH: B1 VH with I57M, T58I, S99T, A103M
VL: B1 VL with Q89G, T93R
Consider B9, for which, in test [3], binding was put at a Kd of 0.25 nM, the “Relative Affinity” value was 12.6 fold vs 25 (Tocilizumab), the koff is 3.53e-05 s⁻¹ and the kon is 141000 M⁻¹ s⁻¹.

B10: 244# (antibody, human IgG1, kappa, V domains shown)
VH: B1 VH with S99T, A103M, M106I, Y108F
VL: B1 VL with Q89G, T93R
For B10, in test [3], binding was put at a Kd of 0.166 nM, the “Relative Affinity” value was 19 fold vs 25 (Tocilizumab), the koff came to 2.33e-05 s⁻¹ and the kon stood at 140000 M⁻¹ s⁻¹.

B11: 238# (antibody, human IgG1, kappa, V domains shown)
VH: B1 VH with I57M, T58I, S99C, A103T
VL: B1 VL with Q89G, T93R
B11: in test [3], the Kd worked out at 0.111 nM, the “Relative Affinity” value is 28.5 fold vs 25 (Tocilizumab), the koff stood at 1.5e-05 s⁻¹ and the kon worked out at 135000 M⁻¹ s⁻¹.

B12: 8# (antibody, human IgG1, kappa, V domains shown)
VH: B1 VH with Y51F, A103T, Y108F
VL: B1 VL
notes: also called Sample # 8
B12: in test [1], the Kd is 0.893 nM, the “Relative Affinity” value is 1.5 fold vs 25 (Tocilizumab), the dissociation rate constant (koff) amounted to 0.000241 s⁻¹ and the kon amounted to 270000 M⁻¹ s⁻¹.

B13: 12# (antibody, human IgG1, kappa, V domains shown)
VH: B1 VH with Y51F, S99C
VL: B1 VL
notes: also called Sample # 12
Consider B13, for which, in test [1], the Kd was 0.288 nM, the “Relative Affinity” value is 4.6 fold vs 25 (Tocilizumab), the koff turned out to be 8.32e-05 s⁻¹ and the kon came out at 289000 M⁻¹ s⁻¹. Further, in test [2], the Kd was determined as 0.418 nM, the “Relative Affinity” value is 4.1 fold vs 25 (Tocilizumab), the koff worked out at 0.000126 s⁻¹ and the kon is 302000 M⁻¹ s⁻¹.

B14: 242# (antibody, human IgG1, kappa, V domains shown)
VH: B1 VH with I57M, T58I, A103M, M106I, Y108F
VL: B1 VL with Q89G, T93R
notes: also called Sample # 242
Consider B14, for which, in test [3], the Kd was 1.24 nM, the “Relative Affinity” value is 2.6 fold vs 25 (Tocilizumab), the koff turned out to be 8.71e-05 s⁻¹ and the kon was found to be 70200 M⁻¹ s⁻¹.

B15: 7# (antibody, human IgG1, kappa, V domains shown)
VH: B1 VH with A103T, M106I
VL: B1 VL
notes: also called Sample # 7
Take B15: in test [1], the dissociation constant Kd stood at 0.763 nM, the “Relative Affinity” value is 1.8 fold vs 25 (Tocilizumab), the koff was determined as 0.000177 s⁻¹ and the association rate constant (kon) came to 232000 M⁻¹ s⁻¹.

B16: 246# (antibody, human IgG1, kappa, V domains shown)
VH: B1 VH with I57M, T58I, S99T, A103T, M106I, Y108F
VL: B1 VL with Q89G, T93R
For B16, in test [3], the Kd is 0.0789 nM, the “Relative Affinity” value was 40.1 fold vs 25 (Tocilizumab), the koff came out at 9.86e-06 s⁻¹ and the kon was 125000 M⁻¹ s⁻¹.

B17: 243# (antibody, human IgG1, kappa, V domains shown)
VH: B1 VH with I57M, T58I, S99C, A103T, M106I, Y108F
VL: B1 VL with Q89G, T93R
B17: in test [3], the Kd is 0.273 nM, the “Relative Affinity” value is 11.6 fold vs 25 (Tocilizumab), the koff came to 1.94e-05 s⁻¹ and the kon is 71000 M⁻¹ s⁻¹.

B18: 35# (antibody, human IgG1, kappa, V domains shown)
VH: B1 VH with A103M
VL: B1 VL
notes: also called Sample # 35
For B18, in test [2], the Kd was 0.648 nM, the “Relative Affinity” value was 2.6 fold vs 25 (Tocilizumab), the koff was 0.000146 s⁻¹ and the kon turned out to be 225000 M⁻¹ s⁻¹.

B19: 15# (antibody, human IgG1, kappa, V domains shown)
VH: B1 VH with Y51F, S99C, A103I
VL: B1 VL
notes: also called Sample # 15
As to B19, in test [1], the affinity, expressed as Kd, was 0.145 nM; the “Relative Affinity” value is 9.2 fold vs 25 (Tocilizumab); the koff amounted to 4.49e-05 s⁻¹; the on-rate (kon) is 310000 M⁻¹ s⁻¹. Further, in test [2], binding was characterised by a dissociation constant (Kd) of 0.2 nM, the “Relative Affinity” value is 8.6 fold vs 25 (Tocilizumab), the koff is 5.97e-05 s⁻¹ and the kon worked out at 298000 M⁻¹ s⁻¹.

B20: 14# (antibody, human IgG1, kappa, V domains shown)
VH: B1 VH with Y51F, A103I
VL: B1 VL
notes: also called Sample # 14
For the molecule B20, in test [1], the Kd was determined as 0.181 nM, the “Relative Affinity” value is 7.4 fold vs 25 (Tocilizumab), the koff is 5.69e-05 s⁻¹ and the kon was found to be 314000 M⁻¹ s⁻¹. Also, in test [2], binding was put at a Kd of 0.261 nM, the “Relative Affinity” value was 6.6 fold vs 25 (Tocilizumab), the dissociation rate constant (koff) turned out to be 9.75e-05 s⁻¹ and the on-rate (kon) worked out at 374000 M⁻¹ s⁻¹.

B21: 45# (antibody, human IgG1, kappa, V domains shown)
VH: B1 VH with S99T, A103T
VL: B1 VL
notes: also called Sample # 45
In the case of B21, in test [2], the affinity, expressed as Kd, was 0.605 nM; the “Relative Affinity” value is 2.8 fold vs 25 (Tocilizumab); the off-rate (koff) is 0.000106 s⁻¹; the kon was 175000 M⁻¹ s⁻¹.

B22: 239# (antibody, human IgG1, kappa, V domains shown)
VH: B1 VH with I57M, T58I, S99C
VL: B1 VL with Q89G, T93R
B22: in test [3], the Kd worked out at 0.164 nM, the “Relative Affinity” value is 19.3 fold vs 25 (Tocilizumab), the koff is 2.36e-05 s⁻¹ and the kon worked out at 144000 M⁻¹ s⁻¹.

Values taken from patent US20190315854A1 (BEIJING VDJBIO, published 2019).
